Molecular target: Tsr (Escherichia coli, UniProt P02942)
Sequence (P02942 whole entry): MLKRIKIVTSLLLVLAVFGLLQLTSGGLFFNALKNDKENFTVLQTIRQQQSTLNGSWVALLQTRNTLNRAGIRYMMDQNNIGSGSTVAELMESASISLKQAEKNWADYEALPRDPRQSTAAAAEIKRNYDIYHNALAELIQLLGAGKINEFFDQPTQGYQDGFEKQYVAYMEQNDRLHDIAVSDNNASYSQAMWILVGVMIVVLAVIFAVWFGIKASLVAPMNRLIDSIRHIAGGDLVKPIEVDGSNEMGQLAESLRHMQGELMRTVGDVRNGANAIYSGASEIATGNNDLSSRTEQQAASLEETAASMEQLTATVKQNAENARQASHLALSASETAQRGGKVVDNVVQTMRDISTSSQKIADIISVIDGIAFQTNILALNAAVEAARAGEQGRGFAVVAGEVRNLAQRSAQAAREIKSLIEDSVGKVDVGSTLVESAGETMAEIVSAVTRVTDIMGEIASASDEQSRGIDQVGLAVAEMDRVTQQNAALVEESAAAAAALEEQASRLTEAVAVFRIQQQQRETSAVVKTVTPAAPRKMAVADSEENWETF

- Kd: ~10 µM
B1: CheW (protein)
chain: MTGMTNVTKLASEPSGQEFLVFTLGDEEYGIDILKVQEIRGYDQVTRIANTPAFIKGVTNLRGVIVPIVDLRIKFSQVDVDYNDNTVVIVLNLGQRVVGIVVDGVSDVLSLTAEQIRPAPEFAVTLSTEYLTGLGALGDRMLILVNIEKLLNSEEMALLDSAASEVA

From PMC1079850 (2005)
